Test results taken from patent US20160032013A1 (Genentech, published 2016).
Where a chain is given by its changes, count along the chain named. Names may count otherwise.

Tests used:
[1] = biological target: T1, Mouse RON-hIgG1 Fc (murine RON Sema/PSI/IPT1, natural leader + R33-V684, fused to human IgG1 Fc) (mouse); assay: SPR (Biacore), anti-Fc chip; legend names murine RON-Fc; the sheet's scheme ('RON or MSP' over 'MSP-Fc or RON-Fc') and have the MSPβ-Fc fusion captured and soluble RON-His injected
T1 construct: also called mRON-hFc; murine RON-Fc
T1 sequence (chain, as listed by the source limits assumed): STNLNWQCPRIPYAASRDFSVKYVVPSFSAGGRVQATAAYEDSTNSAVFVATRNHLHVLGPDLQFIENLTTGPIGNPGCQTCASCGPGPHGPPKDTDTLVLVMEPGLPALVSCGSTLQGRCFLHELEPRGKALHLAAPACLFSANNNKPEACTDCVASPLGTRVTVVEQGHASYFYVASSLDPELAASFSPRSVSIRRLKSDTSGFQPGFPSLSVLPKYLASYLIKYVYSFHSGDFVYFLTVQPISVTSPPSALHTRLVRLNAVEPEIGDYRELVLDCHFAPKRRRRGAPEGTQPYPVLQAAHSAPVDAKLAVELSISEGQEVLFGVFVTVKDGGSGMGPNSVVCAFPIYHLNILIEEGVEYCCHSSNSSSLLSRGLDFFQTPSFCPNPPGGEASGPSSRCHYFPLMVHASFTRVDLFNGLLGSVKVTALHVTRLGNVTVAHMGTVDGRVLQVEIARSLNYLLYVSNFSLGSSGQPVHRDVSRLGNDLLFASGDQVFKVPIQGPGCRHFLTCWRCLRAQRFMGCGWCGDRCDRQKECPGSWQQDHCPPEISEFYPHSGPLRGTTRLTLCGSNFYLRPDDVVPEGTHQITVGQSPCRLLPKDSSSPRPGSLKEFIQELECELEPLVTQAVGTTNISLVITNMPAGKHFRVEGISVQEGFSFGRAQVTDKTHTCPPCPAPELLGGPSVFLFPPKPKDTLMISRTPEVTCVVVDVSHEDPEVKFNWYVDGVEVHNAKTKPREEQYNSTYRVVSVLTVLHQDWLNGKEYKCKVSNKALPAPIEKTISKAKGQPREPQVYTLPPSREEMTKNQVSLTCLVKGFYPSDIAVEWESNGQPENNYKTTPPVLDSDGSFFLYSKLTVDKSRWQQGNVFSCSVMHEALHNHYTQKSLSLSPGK
Protocol: Binding kinetics of RON to MSP β-Fc fusion proteins and MSP proteins to RON-Fc fusions were determined using a Biacore 3000 optical biosensor equipped with a research-grade CM5 sensor chip (GE Healthcare). Amine coupling reagents, N-ethyl-N′-dimethylamino-propylcarbodiimide (EDC), N-hydroxy-succinimide (NHS) and sodium ethanolamine HCl, pH 8.5, were obtained from GE Healthcare. Standard coupling protocols were used to tether a rabbit anti-human IgG1 or rabbit anti-murine IgG2a (Jackson ImmunoResearch Laboratories) onto the biosensor surface. A biosensor chip that was subjected to the amine coupling procedure with no protein coupled was used to correct for non-specific binding. […] Various concentrations (500-3.9 nM, 2-fold dilution series) of RON-His, were injected in HBS-P buffer (10 mM HEPES, pH 7.5, 150 mM NaCl, 0.005% P20) at 25° C. with a flow rate of 30 μL/min and dissociation monitored for 240 sec. Between measurements, the biosensor surfaces were regenerated with a 120 s pulse of 10 mM glycine-HCl pH 1.5 followed by a 120 s wash with running buffer.

[2] = biological target: T2, Human RON-hIgG1 Fc (RON Sema/PSI/IPT1 fused to human IgG1 Fc) (human); assay: SPR capturing RON-Fc at 25 C
T2 construct: also called RON-Fc; hRON-Fc
T2 sequence (chain, as listed by the source limits assumed): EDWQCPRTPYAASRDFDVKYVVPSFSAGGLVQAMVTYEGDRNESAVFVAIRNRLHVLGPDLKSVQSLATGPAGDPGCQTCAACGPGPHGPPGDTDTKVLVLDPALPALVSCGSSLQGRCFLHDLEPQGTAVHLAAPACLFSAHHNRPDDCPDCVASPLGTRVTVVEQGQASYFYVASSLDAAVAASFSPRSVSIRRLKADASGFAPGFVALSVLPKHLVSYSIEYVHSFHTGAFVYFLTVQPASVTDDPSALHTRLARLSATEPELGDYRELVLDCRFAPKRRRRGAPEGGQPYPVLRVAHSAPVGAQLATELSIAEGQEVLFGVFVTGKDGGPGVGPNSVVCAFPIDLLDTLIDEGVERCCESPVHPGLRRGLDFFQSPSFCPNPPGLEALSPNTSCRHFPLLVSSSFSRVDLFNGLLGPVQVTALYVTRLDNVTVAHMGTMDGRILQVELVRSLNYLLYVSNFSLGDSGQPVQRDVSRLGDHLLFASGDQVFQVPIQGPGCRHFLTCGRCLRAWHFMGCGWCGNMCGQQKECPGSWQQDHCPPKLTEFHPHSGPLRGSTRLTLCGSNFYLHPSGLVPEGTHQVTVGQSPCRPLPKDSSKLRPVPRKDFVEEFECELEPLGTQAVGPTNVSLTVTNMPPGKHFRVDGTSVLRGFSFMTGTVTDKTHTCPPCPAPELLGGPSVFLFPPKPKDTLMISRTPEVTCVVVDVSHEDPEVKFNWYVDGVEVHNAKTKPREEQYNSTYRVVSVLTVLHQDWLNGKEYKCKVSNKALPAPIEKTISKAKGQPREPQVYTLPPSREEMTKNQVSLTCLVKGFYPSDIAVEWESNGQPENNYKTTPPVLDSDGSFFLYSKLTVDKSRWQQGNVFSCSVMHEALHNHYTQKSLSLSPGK
Protocol: To determine MSP protein binding kinetics to hRON-Fc or mRON-Fc fusion proteins, between 50 and 100 response units (RU) were captured on each of three immobilized anti-human Fc surfaces. Various concentrations (50-0.78 nM, 2-fold dilution series) of MSP, MSP β, MSP α or scMSP were injected in HBS-P buffer (10 mM HEPES, pH 7.5, 150 mM NaCl, 0.005% P20) at 25° C. with a flow rate of 30 μL/min and dissociation monitored for 4 min. Between measurements, the biosensor surfaces were regenerated with a 2 min pulse of 10 mM glycine-HCl pH 1.5.

[3] = biological target: T2, Human RON-hIgG1 Fc (RON Sema/PSI/IPT1 …); assay: BLI using RON-Fc at 30 C
Protocol: Real-time kinetic measurements of MSP binding to RON were conducted using an Octet RED384 (ForteBio, Inc). Samples or buffer were dispensed into 96-well microtiter plates (Greiner Bio-One North America, Inc.) at a volume of 200 μl per well. Anti-human IgG Fc Biosensors were used for the experiments. Each experiment consisted of three steps: incubation with ForteBio Kinetic buffer diluted 1:10 in PBS assay buffer to establish an equilibrium for 120 s (baseline), incubation with 10 μg/ml RON-Fc in assay buffer to coat the biosensor with binding target for 900 s (load), incubation with MSP, MSP β or scMSP in assay buffer containing various concentrations (75-4.7 nM, 2-fold dilution series) for 400 s (association), and incubation with assay buffer to measure the off-rate of MSP for 400 s (dissociation). Operating temperature was maintained at 30° C. Data were generated automatically by the Octet Data Acquisition 7.0 software. Each data set was fitted globally to a simple one-to-one binding model using ForteBio Analysis Software 7.0 to determine the kinetic parameters kₐ and kd. The equilibrium dissociation constants (KD) were then calculated as a ratio (koff/kₒₙ) of these rate constants.

[4] = biological target: T3, Recombinant human RON Sema/PSI (residues E25-P568) with C-terminal His-tag (human, UniProt Q04912 25-568); assay: SPR using immobilized RON Sema/PSI at 25 C
T3 construct: Made in Trichoplusia ni insect cells

B1: m.L12.m DANA (Fc fusion)
MSP β-linker-Fc fusion chain: VVGGHPGNSPWTVSLRNRQGQHFCGGSLVKEQWVLTARQCIWSCHEPLTGYEVWLGTINQNPQPGEANLQRVPVAKAVCGPAGSQLVLLKLERPVILNHHVALIALPPEQYVVPPGTKCEIAGWGESIGTSNNTVLHVASMNVISNQECNTKYRGHIQESEICTQGLVVPVGACEGDYGGPLACYTHDAWVLQGLIIPNRVCARPRWPAIFTRVSVFVDWINKVMQLEKKIEPRGPTIKPCPPCKCPAPNLLGGPSVFIFPPKIKDVLMISLSPIVTCVVVAVSEDDPDVQISWFVNNVEVHTAQTQTHREDYASTLRVVSALPIQHQDWMSGKEFKCKVNNKDLPAPIERTISKPKGSVRAPQVYVLPPPEEEMTKKQVTLTCMVTDFMPEDIYVEWTNNGKTELNYKNTEPVLDSDGSYFMYSKLRVEKKNWVERNSYSCSVVHEGLHNHHTTKSFSRTPGK
notes: As m12m, with the DANA mutations in the Fc; also called m12m (DANA); Mouse MSP β-L12-mIgG2a Fc (DANA)
B1 was tested, and the Kd [1] was 9.7 nM.

B2: m.L8.m DANA (Fc fusion)
MSP β-linker-Fc fusion chain: VVGGHPGNSPWTVSLRNRQGQHFCGGSLVKEQWVLTARQCIWSCHEPLTGYEVWLGTINQNPQPGEANLQRVPVAKAVCGPAGSQLVLLKLERPVILNHHVALIALPPEQYVVPPGTKCEIAGWGESIGTSNNTVLHVASMNVISNQECNTKYRGHIQESEICTQGLVVPVGACEGDYGGPLACYTHDAWVLQGLIIPNRVCARPRWPAIFTRVSVFVDWINKVMQLEPRGPTIKPCPPCKCPAPNLLGGPSVFIFPPKIKDVLMISLSPIVTCVVVAVSEDDPDVQISWFVNNVEVHTAQTQTHREDYASTLRVVSALPIQHQDWMSGKEFKCKVNNKDLPAPIERTISKPKGSVRAPQVYVLPPPEEEMTKKQVTLTCMVTDFMPEDIYVEWTNNGKTELNYKNTEPVLDSDGSYFMYSKLRVEKKNWVERNSYSCSVVHEGLHNHHTTKSFSRTPGK
notes: As m8m, with the DANA mutations in the Fc; also called m8m (DANA); Mouse MSP β-L8-mIgG2a Fc (DANA)
For B2, the Kd [1] was 5 nM.

B3: m.L16.m DANA (Fc fusion)
MSP β-linker-Fc fusion chain: VVGGHPGNSPWTVSLRNRQGQHFCGGSLVKEQWVLTARQCIWSCHEPLTGYEVWLGTINQNPQPGEANLQRVPVAKAVCGPAGSQLVLLKLERPVILNHHVALIALPPEQYVVPPGTKCEIAGWGESIGTSNNTVLHVASMNVISNQECNTKYRGHIQESEICTQGLVVPVGACEGDYGGPLACYTHDAWVLQGLIIPNRVCARPRWPAIFTRVSVFVDWINKVMQLEQVTDKKIEPRGPTIKPCPPCKCPAPNLLGGPSVFIFPPKIKDVLMISLSPIVTCVVVAVSEDDPDVQISWFVNNVEVHTAQTQTHREDYASTLRVVSALPIQHQDWMSGKEFKCKVNNKDLPAPIERTISKPKGSVRAPQVYVLPPPEEEMTKKQVTLTCMVTDFMPEDIYVEWTNNGKTELNYKNTEPVLDSDGSYFMYSKLRVEKKNWVERNSYSCSVVHEGLHNHHTTKSFSRTPGK
notes: As m16m, with the DANA mutations in the Fc; also called m16m (DANA); Mouse MSP β-L16-mIgG2a Fc (DANA)
Work on B3 yielded a Kd [1] of 6.6 nM.

B4: h.L16.m (Fc fusion)
MSP β-linker-Fc fusion chain: VVGGHPGNSPWTVSLRNRQGQHFCGGSLVKEQWILTARQCFSSCHMPLTGYEVWLGTLFQNPQHGEPSLQRVPVAKMVCGPSGSQLVLLKLERSVTLNQRVALISLPPEWYVVPPGTKCEIAGWGETKGTGNDTVLNVALLNVISNQECNIKHRGRVRESEMCTEGLLAPVGACEGDYGGPLACFTHNAWVLEGIIIPNRVCARSRWPAVFTRVSVFVDWIHKVMRLGQVTDKKIEPRGPTIKPCPPCKCPAPNLLGGPSVFIFPPKIKDVLMISLSPIVTCVVVDVSEDDPDVQISWFVNNVEVHTAQTQTHREDYNSTLRVVSALPIQHQDWMSGKEFKCKVNNKDLPAPIERTISKPKGSVRAPQVYVLPPPEEEMTKKQVTLTCMVTDFMPEDIYVEWTNNGKTELNYKNTEPVLDSDGSYFMYSKLRVEKKNWVERNSYSCSVVHEGLHNHHTTKSFSRTPGK
notes: Human MSP β joined by a 16-residue linker to murine IgG2a Fc; also called h16m; Human MSP β-L16-mIgG2a Fc
In the case of B4, the Kd [1] is reported as 11.6 nM.

B5: h.L16.m DANA (Fc fusion)
MSP β-linker-Fc fusion chain: B4 MSP β-linker-Fc fusion chain with A189S, D286A, N318A
notes: As h16m, with the D265A and N297A (DANA) mutations in the Fc; also called h16m (DANA); Human MSP β-L16-mIgG2a Fc (DANA)
With B5 the Kd [1] was 10.9 nM.

B6: Human MSP β R689C (HGF leader + V484-G711 + C588S + C672A + R689C + His tag) (ligand)
chain: VVGGHPGNSPWTVSLRNRQGQHFCGGSLVKEQWILTARQCFSSCHMPLTGYEVWLGTLFQNPQHGEPSLQRVPVAKMVCGPSGSQLVLLKLERSVTLNQRVALISLPPEWYVVPPGTKCEIAGWGETKGTGNDTVLNVALLNVISNQECNIKHRGRVRESEMCTEGLLAPVGACEGDYGGPLACFTHNAWVLEGIIIPNRVCARSCWPAVFTRVSVFVDWIHKVMRLGHHHHHH
notes: This is an inference
In the case of B6, the Kd [2] is reported as 9 nM, the koff [2] is reported as 0.0479 s⁻¹ and the kon [2] is reported as 5.75e+06 M⁻¹ s⁻¹. For the same binder, the Kd [3] was 9.1 nM, the koff [3] was 0.0093 s⁻¹ and the kon [3] was 1.75e+06 M⁻¹ s⁻¹. It also gave a Kd [4] of 9.1 nM, a koff [4] of 0.0142 s⁻¹ and a kon [4] of 1.3e+06 M⁻¹ s⁻¹.

B7: m.L4.m DANA (Fc fusion)
MSP β-linker-Fc fusion chain: VVGGHPGNSPWTVSLRNRQGQHFCGGSLVKEQWVLTARQCIWSCHEPLTGYEVWLGTINQNPQPGEANLQRVPVAKAVCGPAGSQLVLLKLERPVILNHHVALIALPPEQYVVPPGTKCEIAGWGESIGTSNNTVLHVASMNVISNQECNTKYRGHIQESEICTQGLVVPVGACEGDYGGPLACYTHDAWVLQGLIIPNRVCARPRWPAIFTRVSVFVDWINKVMQLETIKPCPPCKCPAPNLLGGPSVFIFPPKIKDVLMISLSPIVTCVVVAVSEDDPDVQISWFVNNVEVHTAQTQTHREDYASTLRVVSALPIQHQDWMSGKEFKCKVNNKDLPAPIERTISKPKGSVRAPQVYVLPPPEEEMTKKQVTLTCMVTDFMPEDIYVEWTNNGKTELNYKNTEPVLDSDGSYFMYSKLRVEKKNWVERNSYSCSVVHEGLHNHHTTKSFSRTPGK
notes: As m4m, with the DANA mutations in the Fc; also called m4m (DANA); Mouse MSP β-L4-mIgG2a Fc (DANA)
In the case of B7, the Kd [1] is reported as 13.8 nM.
